# Molecular target: T1, human TIM-3 coupled to Fc (human, UniProt Q8TDQ0 22-200, limits assumed)
# T1 construct: Immobilised on the SPR sensor chip; not shown: Fc part
# Assay: SPR (ProteOn XPR36), human TIM-3-Fc immobilised, antibody in flow
# Procedure: In order to select some leads amongst the ELISA-positive clones, TIM-3 association/dissociation profiles were analysed by Surface Plasmon Resonance (SPR). Briefly, human TIM-3 coupled to Fc was immobilised on sensor chip and the antibodies were then applied as a flow onto the chip. Association and dissociation rates were recorded using a ProteOn XPR36 bioanalyser (Biorad). Nine clones (1B9, 1H9, 1H10, 2C7, 2F4, 2G6, 1D9, 1F4, 2C8) were selected based on their rapid/strong association to TIM-3 and their slow dissociation from the protein (FIG. 5).
row,binding result,Binder
1,binds,"anti-TIM-3 antibody clone 1H10 (antibody, V domains shown) VH: QVQLQQWGAGLLKPSETLSLTCAVYGGSFSGYYWSWIRQPPGKGLEWIGEINHSGSTNYNPSLKSRVTISVDTSKNQFSLKLSSVTAADTAVYYCARGYVAGFDSWGQGTLVTVSS VL: QSVLTQPPSVSAAPGQKVTISCSGSSSNIGNNYVSWYQQLPGTAPKLLIYGNNWRPSGIPDRFSGSKSGTSATLGITGLQTGDEADYYCDSWDYDYAAGVFGGGTKLTVL"
2,binds,"anti-TIM-3 antibody clone 1B9 (antibody, V domains shown, also called 169) VH: QVQLQQWGAGLLKPSETLSLTCAVYGGSFSGYYWSWIRQPPGKGLEWIGEINHSGSTNYNPSLKSRVTISVDTSKNQFSLKLSSVTAADTAVYYCARGYVAGSDAWGQGTLVTVSS VL: QSVLTQPPSVSAAPGQKVTISCSGSSSNIGNNYVSWYQQLPGTAPKLLIYGNNWRPSGIPDRFSGSKSGTSATLGITGLQTGDEADYYCEAWDYYVAAGYFGGGTKLTVL"
3,binds,"anti-TIM-3 antibody clone 1D9 (antibody, V domains shown) VH: QVQLQQWGAGLLKPSETLSLTCAVYGGSFSGYYWSWIRQPPGKGLEWIGEINHSGSTNYNPSLKSRVTISVDTSKNQFSLKLSSVTAADTAVYYCARGYYAGDDYWGQGTLVTVSS VL: QSVLTQPPSVSAAPGQKVTISCSGSSSNIGNNYVSWYQQLPGTAPKLLIYGNNWRPSGIPDRFSGSKSGTSATLGITGLQTGDEADYYCEAWDSAYAAGSFGGGTKLTVL"
4,binds,"anti-TIM-3 antibody clone 1H9 (antibody, V domains shown) VH: QVQLQQWGAGLLKPSETLSLTCAVYGGSFSGYYWSWIRQPPGKGLEWIGEINHSGSTNYNPSLKSRVTISVDTSKNQFSLKLSSVTAADTAVYYCARGYVAGFDDWGQGTLVTVSS VL: QSVLTQPPSVSAAPGQKVTISCSGSSSNIGNNYVSWYQQLPGTAPKLLIYGNNWRPSGIPDRFSGSKSGTSATLGITGLQTGDEADYYCDSWDSADASGVFGGGTKLTVL"
5,binds,"anti-TIM-3 antibody clone 2F4 (antibody, V domains shown) VH: QVQLQQWGAGLLKPSETLSLTCAVYGGSFSGYYWSWIRQPPGKGLEWIGEINHSGSTNYNPSLKSRVTISVDTSKNQFSLKLSSVTAADTAVYYCARGYVAGSDAWGQGTLVTVSS VL: QSVLTQPPSVSAAPGQKVTISCSGSSSNIGNNYVSWYQQLPGTAPKLLIYGNNWRPSGIPDRFSGSKSGTSATLGITGLQTGDEADYYCESWDYDYASGVFGGGTKLTVL"
6,binds,"anti-TIM-3 antibody clone 2G6 (antibody, V domains shown) VH: QVQLQQWGAGLLKPSETLSLTCAVYGGSFSGYYWSWIRQPPGKGLEWIGEINHSGSTNYNPSLKSRVTISVDTSKNQFSLKLSSVTAADTAVYYCARGYVAGFDSWGQGTLVTVSS VL: QSVLTQPPSVSAAPGQKVTISCSGSSSNIGNNYVSWYQQLPGTAPKLLIYGNNWRPSGIPDRFSGSKSGTSATLGITGLQTGDEADYYCDSWDSSDSSGVFGGGTKLTVL"
7,binds,"anti-TIM-3 antibody clone 2C7 (antibody, V domains shown) VH: QVQLQQWGAGLLKPSETLSLTCAVYGGSFSGYYWSWIRQPPGKGLEWIGEINHSGSTNYNPSLKSRVTISVDTSKNQFSLKLSSVTAADTAVYYCARGYVAGYDYWGQGTLVTVSS VL: QSVLTQPPSVSAAPGQKVTISCSGSSSNIGNNYVSWYQQLPGTAPKLLIYGNNWRPSGIPDRFSGSKSGTSATLGITGLQTGDEADYYCDSWDSYLAAGVFGGGTKLTVL"
8,binds,"anti-TIM-3 antibody clone 1F4 (antibody, V domains shown) VH: QVQLQQWGAGLLKPSETLSLTCAVYGGSFSGYYWSWIRQPPGKGLEWIGEINHSGSTNYNPSLKSRVTISVDTSKNQFSLKLSSVTAADTAVYYCARGYVAGYDYWGQGTLVTVSS VL: QSVLTQPPSVSAAPGQKVTISCSGSSSNIGNNYVSWYQQLPGTAPKLLIYGNNWRPSGIPDRFSGSKSGTSATLGITGLQTGDEADYYCDSWDAALSAGVFGGGTKLTVL"

# Reference: patent US20200055935A1 (AGENCY FOR SCIENCE TECHNOLOGY AND RESEARCH, published 2020)
